Measurements: the nanobody polyreactivity screen of Harvey et al. (2022)

Assay: yeast display, Sf9 membrane polyspecificity reagent, FACS + sequencing; frameworks hold sequencing errors
Method in brief: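 Sorting gates, low and high (top ~1%), were placed on anti-HA fluorescence to track expression and on streptavidin fluorescence to track reagent binding. A clone's polyreactivity label is taken from the gate it came out of. The reagent was 10% biotinylated, detergent-solubilized Sf9 membrane, applied for 1 hour at 4 °C to galactose-induced yeast display cells.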

Sequence | polyreactivity (PSR sort gate)
QVQLVESGGGLVQAGGSLRLSCAASGFIFWFNAIGWSRQEPGKEREWVATISWSDTSTYYADSVKGRFTISRDNAKNTVYLQMNSLKPEDTAVYYCATDGRETWLPEYYWGQGTQVTVSS | low polyreactivity
QVQLVESGGGLVQAGGSLRLSCAASGFIFWGNAMGWYRQAPGKERELVAAINYSGGRTYYADSVKGRFTISRDNAKNTVYLQMNSLKAEATAVNYCAAKYRYHVSGYDYWGQATQVTVSS | high polyreactivity
QVQLVESGGGLVQAGGSLRLSCAASGFIFWLYAMGWYRQAPGKERELVAAISSSGGNTYYADSVKGRFTISRDNAKNTVYLQMNSLKPEDTAVYYCAATYSYGRTYSGYYWGQGTQVTVSS | low polyreactivity
QVQLVESGGGLVQAGGSLRLSCAASGFIFWQYTMGWYRPAPGKERELVAAINGGSATYYADSVKGRFTISRDNAKNTVYLQMNSLKPEDTAVYYCAADRYLYHYRYEYYYWGQGTQVTVSS | high polyreactivity
QVQLVESGGGLVQAGGSLRLSCAASGFIFWRYTMGWYRQAPGKERELVAVISWSGDNTYADSVKGRFTISRDNAKNTVYLQMNSLKPEDTAVYYCGVYRYDYWGQGTQVTVSS | low polyreactivity
QVQLVESGGGLVQAGGSLRLSCAASGFIFWSNAMGWYRQAPGKERELVAAISWSGGSTYYADSVKGRFTISRDNAKNTVYLQMNSLKQEDTAVYYCAAEFWGWDWDLEYWGQGTQVTVSS | high polyreactivity
QVQLVESGGGLVQAGGSLRLSCAASGFIFWVNAMGWYRKAPGKERELVAAISSSYGSTYYADYVKGRFSISRDNAKNTVYLQMNRLKPEDTAVCYSAARWLGHFYPFFLQGLSGFDYWGQGTHVTVSS | low polyreactivity
QVQLVESGGGLVQAGGSLRLSCAASGFIFWYYAMGWYRQAPGKERELVATITRGGSTYYADSVKGRFTISRDNAKNTFYLQMNSLKPEDTAVYYCNAVRPKIYDYWGQGTQVTVSS | high polyreactivity
QVQLVESGGGLVQAGGSLRLSCAASGFIFWYYTMGGYRQAPGKERELVAAISRSGASTYYADSVKGRFTISRDNAKNTVYLQMNSLKPEDTAVYYCAKDYQTYSGSSDFDYWGQGTQVTVSS | high polyreactivity
QVQLVESGGGLVQAGGSLRLSCAASGFIFYAYAMGWYRQAPGKERELVAAIDSGGNTYADSVKGRFTISRDNAKNTVYLQMNSLKPEDTAVYYCAVDGGEFSSYGYWGQGTQVTVSS | low polyreactivity
QVQLVESGGGLVQAGGSLRLSCAASGFIFYAYDMGWYRQAPGKERELVAAISRVGSTYYADSVKGRFTISRDNAKNTVYLQMNSLKPEDTAVYYCATKFGTTRGFGYWGQGTQVTVSS | high polyreactivity
QVQLVESGGGLVQAGGSLRLSCAASGFIFYDYAMGWNRQAPGKERELVAAISSGGSTNYADSVKGRFTISRDNAKNTVYLQMNSLKPEDTAVYFCAADDRSYASWKRDYDYWGQGTQVTVSS | low polyreactivity
QVQLVESGGGLVQAGGSLRLSCAASGFIFYDYAMGWYRQAPGKERELVAAISRGGSSTYYADSVKGRFTISRDNAKNTVYLQMNSLKPEDTAVYYCAAYRWYEYDYWGQGTQVTVSS | high polyreactivity
QVQLVESGGGLVQAGGSLRLSCAASGFIFYDYVMGWYRQAPGKERELVAAISASGGSTYYADSVKGRFTISRDNAKNTVYLQMNCLKPEDTAVYYCNARPKYDSGHYYWGQGTQVTVSS | high polyreactivity
QVQLVESGGGLVQAGGSLRLSCAASGFIFYEYDMGWYRQAPGKERELVAAISVSGGSTYYADSVKGRFTISRDNAKNTVYLQRNSLKPEDTAVYYCAVFLPDYGRYDYWGQGTQVTVSS | low polyreactivity
QVQLVESGGGLVQAGGSLRLSCAASGFIFYFNAMGWYRQAPGKERELVAAISASGGRTYFADSVKGRFTISRDNAKNTVYLLMNSLKPEDTAVYYCAARGGSYYFRRYNYWGQGTQVNVSS | high polyreactivity

Sequence | polyreactivity (PSR sort gate)
QVQLVESGGGLVQAGGSLRLSCAASGFIFYGYMGWYRQAPGKERELVAAISYTGGSTYYADSVKGRFTISRDNAKNTVYLQMNSLKPEDTAVYYCARDWRTKWFGYWGQGTQVTVSS | low polyreactivity
QVQLVESGGGLVQAGGSLRLSCAASGFIFYGYVMGWYRQAPGKERELVAAITYNGGRTYYADSVKGRFTISRDNAKNTVYLQMNSLKPEDTAVYYCAALGYDGDYDYWGQGTQVTVSS | low polyreactivity
QVQLVESGGGLVQAGGSLRLSCAASGFIFYIYAMGWYRQAPGKERELVAAISWNGGSTYYADSVKGRFTISRDNAKNTVYLLMNSLKPEDTAVYYCATVARYRYGTGRFDYWGQGTQVTVSS | high polyreactivity
QVQLVESGGGLVQAGGSLRLSCAASGFIFYIYAMGWYRQAPGKEWELVAAISGGGGSTYYAASVKGRFTISRDNAKNTVYLQINSLKPEDTAVSYCAARYDVAWYSKRYSWGQGTQVTVSS | high polyreactivity
QVQLVESGGGLVQAGGSLRLSCAASGFIFYKNAMGLYRQAPGKERELVAAISRRGSSTYYADSVKGRFTISRDNAKNTVYLQMNSLKPEDTAVYYCAARFTRRDYWGQGTQVTVSS | high polyreactivity
QVQLVESGGGLVQAGGSLRLSCAASGFIFYKYAMGWYRQAPGKERELVAAITRSGGSTYYADSVKGRFTISRDNAKNTVYLQMNSLKPEDTAVYYCAKRSYRARDAVPGGFDSWGQGTQVTVSS | high polyreactivity
QVQLVESGGGLVQAGGSLRLSCAASGFIFYLYAMGWYRQAPGKERELVAAIDSGDDTDYADSVKGRFTISRDNAKNTVYLQMNSLKPEDTAVYYCAAGAYWPWGEDYWGQGTQVTVSS | high polyreactivity
QVQLVESGGGLVQAGGSLRLSCAASGFIFYLYAMGWYRQAPGKERELVAAISWDGGSTYYADSVKGRFTISRDNAKNTVYLQMNSLKPEDTAVYYCAADREFWWEVVYTYEYYYWGQGTQVTVSS | low polyreactivity
QVQLVESGGGLVQAGGSLRLSCAASGFIFYNYALGWYRQAPGKERELVAAISASGGRSYYADSVKGRFTISRDNAKNTVYLQMNRLKPEDTAVYYCNARVNYKGYDYWGQGTQVTVSS | high polyreactivity
QVQLVESGGGLVQAGGSLRLSCAASGFIFYNYAMGWYRQAPGKERELVAAITGGGSTNYADSVKGRLTISRDNPKNTVYLQMNSLKPEDTAVYYCAAEEGPPWSRYDYWGQGTQVTVSS | low polyreactivity
QVQLVESGGGLVQAGGSLRLSCAASGFIFYPYAMGWYRQAPGKERELVAVIRWSGGRTYYADSVKGRFTISRDNAKNTVYLQMNSLKPEDTSVYYCNARKITRYAVGPRKLGDYWGQGTQVTVTS | high polyreactivity
QVQLVESGGGLVQAGGSLRLSCAASGFIFYRNALGWYRQAPGKERELVAVIRWSGTSTSYADSVKGRFTISRDNAKNTVYLQMNSLKPEDTAVYYCNAAWYDLYGDSDGDDYWGQGTQVTVSS | low polyreactivity
QVQLVESGGGLVQAGGSLRLSCAASGFIFYRNAMGWYRQAPGKERELVAAISKSGGITYYADSVKGRFTISRDNAKNTVYLQMNSLKPEDTAVYYCAKASQNGYDYWGQGTQVTVSS | high polyreactivity
QVQLVESGGGLVQAGGSLRLSCAASGFIFYRYAIGWYIQAPGKEREFVASISGSGGRTYYADSVKGRFTISRDNAKNTVYLQMNTLKPEDTAGYYCAADRYSAYLYWDEYWGQGTQVTVSS | high polyreactivity
QVQLVESGGGLVQAGGSLRLSCAASGFIFYRYAMGRYRQAPGKERELVAAISWYGGTTYYADSVKGRFTISRDNAKNTVYLQMNSLKPEDTAVYYCAASRLRTEYYWGQGTQVTVSS | high polyreactivity
QVQLVESGGGLVQAGGSLRLSCAASGFIFYRYAMGWSRQAPGKERELVAAISWGGGSTTYYADSVKGRFTISRDNAKNTVYLQMNSLKPEDTAVYYCAAYIGKGYGSEYYYWGQGTQVTVSS | low polyreactivity
